# Reference: publication PMC5241119, “Structural snapshots of Xer recombination reveal activation by synaptic complex remodeling and DNA bending”
# Changes are numbered by the printed parent chain.
# T1: XerH (Helicobacter pylori strain 26995 (as …, UniProt O25386 1-362))
# T1 sequence: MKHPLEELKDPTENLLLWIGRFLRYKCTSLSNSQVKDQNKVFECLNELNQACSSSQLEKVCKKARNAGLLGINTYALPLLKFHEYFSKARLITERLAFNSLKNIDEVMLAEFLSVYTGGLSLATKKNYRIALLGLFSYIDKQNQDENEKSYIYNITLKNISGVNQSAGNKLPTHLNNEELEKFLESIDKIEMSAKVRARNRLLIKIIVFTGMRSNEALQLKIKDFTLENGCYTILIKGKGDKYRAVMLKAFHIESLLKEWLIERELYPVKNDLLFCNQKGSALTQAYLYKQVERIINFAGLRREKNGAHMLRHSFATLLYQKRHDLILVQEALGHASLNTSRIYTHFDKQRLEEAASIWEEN
# B1: difH 50 bp (dsDNA)
# DNA 1: TAAATTCATTTAGTTATGAAAACTGCACTTTTCAAACTTTTAAATCAAAC
# DNA 2: GTTTGATTTAAAAGTTTGAAAAGTGCAGTTTTCATAACTAAATGAATTTA
# B2: difH 30 bp (SEC) (dsDNA)
# DNA 1: TAGTTATGAAAACTGCACTTTTCAAACTTT
# DNA 2: AAAGTTTGAAAAGTGCAGTTTTCATAACTA
# B3: difHL 50 bp (left arm, right arm replaced by random) (dsDNA)
# DNA 1: TAAATTCATTTAGTTATGAAAACTGCACTTAAATCAAACCATTTAAATAA
# DNA 2: TTATTTAAATGGTTTGATTTAAGTGCAGTTTTCATAACTAAATGAATTTA
# B4: difHLP (left-arm palindrome, 30 bp) (dsDNA)
# DNA 1: TAGTTATGAAAACTGCAGTTTTCATAACTA
# DNA 2: B4 DNA 1
# B5: difHR 50 bp (right arm, left arm replaced by random) (dsDNA)
# DNA 1: CATATTTTTCCTTTTAAATTCACTGCACTTTTCAAACTTTTAAATCAAAC
# DNA 2: GTTTGATTTAAAAGTTTGAAAAGTGCAGTGAATTTAAAAGGAAAAATATG
# B6: difH 30 bp (pre-cleavage crystal) (dsDNA)
# DNA 1: B2 DNA 1 with T1G
# DNA 2: B2 DNA 2
# B7: difHRP (right-arm palindrome, 30 bp) (dsDNA)
# DNA 1: AAAGTTTGAAAAGTGCACTTTTCAAACTTT
# DNA 2: B7 DNA 1
# How the values were obtained:
# [1] = target: Helicobacter pylori XerH recombinase, full-length wild type (Helicobacter pylori) (UniProt O25386); test: crystal structure; XerH co-crystallised with nicked palindromic 'suicide' difHLP DNA (post-cleavage synaptic complex; two XerH and one DNA in the asymmetric unit, tetramer by crystallographic two-fold); well 0.1 M HEPES pH 7-8, 0.2 M MgCl2, 25-35% PEG 400; 6°C
# [2] = target: Helicobacter pylori XerH recombinase, full-length wild type (Helicobacter pylori) (UniProt O25386); test: crystal structure; full-length wild-type XerH co-crystallised with a 30 bp difH DNA duplex (pre-cleavage synaptic complex: four XerH, two difH); protein:DNA 1.2:1; well 0.2 M NaCl, 20-25% PEG 3350; 6°C
# XerH K290S = XerH K290S (Helicobacter pylori strain 26995 (as …, UniProt O25386 1-362, K290S)); test: EMSA; K290S does not affect difH binding; EMSA: 25 mM HEPES pH 7.5, 100 mM NaCl, 10 mM MgCl2, 5% glycerol, 1 mM DTT, 1 mM EDTA, 1 h at 30 C, 20 nM DNA, 0-360 nM XerH; SEC complexes prepared as for crystallization (dialysed to 25 mM Na acetate pH 5.5, 200 mM NaCl, 5% glycerol, 1 mM DTT); details: protein: recombinant; tags: His6-SUMO N-terminal, removed with SenP2; label: 5'-32P; blunt
# XerH [3] = target: T1, XerH; test: EMSA; 10 mM Mg2+; all complex species summed; EMSA: 25 mM HEPES pH 7.5, 100 mM NaCl, 10 mM MgCl2, 5% glycerol, 1 mM DTT, 1 mM EDTA, 1 h at 30 C, 20 nM DNA, 0-360 nM XerH; SEC complexes prepared as for crystallization (dialysed to 25 mM Na acetate pH 5.5, 200 mM NaCl, 5% glycerol, 1 mM DTT); details: protein: recombinant; tags: His6-SUMO N-terminal, removed with SenP2; label: 5'-32P; blunt
# XerH [4] = target: T1, XerH; test: analytical SEC; EMSA: 25 mM HEPES pH 7.5, 100 mM NaCl, 10 mM MgCl2, 5% glycerol, 1 mM DTT, 1 mM EDTA, 1 h at 30 C, 20 nM DNA, 0-360 nM XerH; SEC complexes prepared as for crystallization (dialysed to 25 mM Na acetate pH 5.5, 200 mM NaCl, 5% glycerol, 1 mM DTT); details: protein: recombinant, tags: His6-SUMO N-terminal, removed with SenP2, blunt
# XerH [5] = target: T1, XerH; test: X-ray crystallography; 2.1 A; pre-cleavage, pH 5.5, no metal; EMSA: 25 mM HEPES pH 7.5, 100 mM NaCl, 10 mM MgCl2, 5% glycerol, 1 mM DTT, 1 mM EDTA, 1 h at 30 C, 20 nM DNA, 0-360 nM XerH; SEC complexes prepared as for crystallization (dialysed to 25 mM Na acetate pH 5.5, 200 mM NaCl, 5% glycerol, 1 mM DTT); details: protein: recombinant; tags: His6-SUMO N-terminal, removed with SenP2; blunt ends, terminal G:A mismatch at strand 1 position 1 as printed; two duplexes per complex
# XerH [6] = target: T1, XerH; test: analytical SEC; no shift in retention; EMSA: 25 mM HEPES pH 7.5, 100 mM NaCl, 10 mM MgCl2, 5% glycerol, 1 mM DTT, 1 mM EDTA, 1 h at 30 C, 20 nM DNA, 0-360 nM XerH; SEC complexes prepared as for crystallization (dialysed to 25 mM Na acetate pH 5.5, 200 mM NaCl, 5% glycerol, 1 mM DTT); details: protein: recombinant; tags: His6-SUMO N-terminal, removed with SenP2; blunt, self-complementary, 2 copies of one strand
molecule,measurement,setting,value
"Helicobacter pylori XerH recombinase, full-length wild type (from UniProt O25386 1-362) (enzyme)",stoichiometry N,[1],4
same,stoichiometry N,[2],4
B1,binding result,XerH K290S,binds
same,Kd,XerH [3],150 nM
B2,binding result,XerH [4],binds
B3,Kd,XerH [3],180 nM
B4,binding result,"XerH [4]; self-complementary, 2 copies of one strand",binds
B5,Kd,XerH [3],230 nM
B6,binding result,XerH [5],binds
B7,binding result,XerH [6],no binding
